# Results as given in patent US20160017022A1.
# Target: EGFP-MAL stably expressed on CHO cells
# Assay: FACS, CHO cells stably expressing EGFP-MAL
substance,measurement,value
fluorescently labeled ETX (ETX^Alexa-647) (from UniProt Q02307 33-328) (ligand),double labeling of EGFP-MAL expressing cells,100%
